Assay results as given in patent US20250216381A1 (published 2025).

T1: HELZ2 P775A peptide on HLA-DPA1*01:03 / HLA-DPB1*104:01 (human)
T1 peptide: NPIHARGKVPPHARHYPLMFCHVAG

T2: HELZ2 P775A peptide on HLA-DPA1*03:01 / HLA-DPB1*104:01 (human)
T2 peptide: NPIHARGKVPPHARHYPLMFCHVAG

T3: ARHGEF16 R150W peptide on HLA-DRA*01:01 / HLA-DRB1*11:01 (human)
T3 peptide: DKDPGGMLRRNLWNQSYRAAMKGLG

T4: ERGIC2 L176P peptide on HLA-A*03:01 (human)
T4 peptide: RIHGHPYVNK


Key:
Assay in all cases: activation reporter or marker
[1] = target: T1, HELZ2 P775A peptide on HLA-DPA1*01:03 / …
[2] = target: T2, HELZ2 P775A peptide on HLA-DPA1*03:01 / …
[3] = target: T3, ARHGEF16 R150W peptide on HLA-DRA*01:01 …
[4] = target: T4, ERGIC2 L176P peptide on HLA-A*03:01

| Binder | binding result [3] | also measured |
| --- | --- | --- |
| 6932-TCR5 (TCR, V domains shown) Valpha: RKEVEQDPGPFNVPEGATVAFNCTYSNSASQSFFWYRQDCRKEPKLLMSVYSSGNEDGRFTAQLNRASQYISLLIRDSKLSDSATYLCVVKNQGGKLIFGQGTELSVKP Vbeta: GVTQTPRYLIKTRGQQVTLSCSPISGHRSVSWYQQTPGQGLQFLFEYFSETQRNKGNFPGRFSGRQFSNSRSEMNVSTLELGDSALYLCASILGGGRGDTQYFGPGTRLTVL |  | binding result [1]: recognises; binding result [2]: recognises |
| 8434-TCR21 (TCR, V domains shown) Valpha: KQEVTQIPAALSVPEGENLVLNCSFTDSAIYNLQWFRQDPGKGLTSLLLIQSSQREQTSGRLNASLDKSSGRSTLYIAASQPGDSATYLCAVRRDGTASKLTFGTGTRLQVTL Vbeta: AVVSQHPSWVICKSGTSVKIECRSLDFQATTMFWYRQFPKQSLMLMATSNEGSKATYEQGVEKDKFLINHASLTLSTLTVTSAHPEDSSFYICSASFPGRGNEQFFGPGTRLTVL | recognises |  |
| 8434-TCR20 (TCR, V domains shown) Valpha: KQEVTQIPAALSVPEGENLVLNCSFTDSAIYNLQWFRQDPGKGLTSLLLIQSSQREQTSGRLNASLDKSSGRSTLYIAASQPGDSATYLCAVRHSGNTPLVFGKGTRLSVIA Vbeta: AVVSQHPSRVICKSGTSVKIECRSLDFQATTMFWYRQFPKQSLMLMATSNEGSKATYEQGVEKDKFLINHASLTLSTLTVTSAHPEDSSFYICSASGGGRTEAFFGQGTRLTVV | recognises |  |
| 8434-TCR23 (TCR, V domains shown) Valpha: QQQVKQSPQSLIVQKGGISIINCAYENTAFDYFPWYQQFPGKGPALLIAIRPDVSEKKEGRFTISFNKSAKQFSLHIMDSQPGDSATYFCAASRASGGSYIPTFGRGTSLIVHP Vbeta: GITQSPKYLFRKEGQNVTLSCEQNLNHDAMYWYRQDPGQGLRLIYYSQIVNDFQKGDIAEGYSVSREKKESFPLTVTSAQKNPTAFYLCATKILAGANTGELFFGEGSRLTVL | recognises |  |
| 2599-TCR12 (TCR, V domains shown) Valpha: EDKVVQSPLSLVVHEGDTVTLNCSYEVTNFRSLLWYKQEKKAPTFLFMLTSSGIEKKSGRLSSILDKKELFSILNITATQTGDSAIYLCGGLNAGGTSYGKLTFGQGTILTVHP Vbeta: EPEVTQTPSHQVTQMGQEVILRCVPISNHLYFYWYRQILGQKVEFLVSFYNNEISEKSEIFDDQFSVERPDGSNFTLKIRSTKLEDSAMYFCASLGASTYEQYFGPGTRLTVT |  | binding result [4]: recognises |
